T1: Human CD3eg linker (human)
T1 construct: single-chain construct; also called recombinant human CD3
T1 chain: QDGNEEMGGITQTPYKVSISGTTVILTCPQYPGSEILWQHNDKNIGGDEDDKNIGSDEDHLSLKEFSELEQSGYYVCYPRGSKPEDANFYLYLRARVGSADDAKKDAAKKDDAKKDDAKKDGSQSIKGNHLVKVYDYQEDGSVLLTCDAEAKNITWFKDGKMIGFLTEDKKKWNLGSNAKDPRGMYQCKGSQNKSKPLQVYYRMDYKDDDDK

B1: dBBDu183H A100fY/dBBDu072L (antibody, name in Kabat numbering, V domains shown)
VH: QVQLVESGGGLVQPGRSLRLSCAASGFTFSNAWMHWVRQAPGKGLEWVAQIKDKGNAYAAYYAPSVKGRFTISRDDSKNSIYLQMNSLKTEDTAVYYCHYVHYASASTVLPYFGVDAWGQGTTVTVSS
VL: DIVMTQSPLSLPVTPGEPASISCQASQELVHMNRNTYLHWYQQKPGQAPRLLIYKVSNRFPGVPDRFSGSGSGTDFTLKISRVEAEDVGVYYCAQGTSVPFTFGQGTKLEIK
B2: dBBDu183H A102W/dBBDu072L (antibody, name in Kabat numbering, V domains shown)
VH: QVQLVESGGGLVQPGRSLRLSCAASGFTFSNAWMHWVRQAPGKGLEWVAQIKDKGNAYAAYYAPSVKGRFTISRDDSKNSIYLQMNSLKTEDTAVYYCHYVHYASASTVLPAFGVDWWGQGTTVTVSS
VL: DIVMTQSPLSLPVTPGEPASISCQASQELVHMNRNTYLHWYQQKPGQAPRLLIYKVSNRFPGVPDRFSGSGSGTDFTLKISRVEAEDVGVYYCAQGTSVPFTFGQGTKLEIK
B3: dBBDu183H A102R/dBBDu072L (antibody, name in Kabat numbering, V domains shown)
VH: QVQLVESGGGLVQPGRSLRLSCAASGFTFSNAWMHWVRQAPGKGLEWVAQIKDKGNAYAAYYAPSVKGRFTISRDDSKNSIYLQMNSLKTEDTAVYYCHYVHYASASTVLPAFGVDRWGQGTTVTVSS
VL: DIVMTQSPLSLPVTPGEPASISCQASQELVHMNRNTYLHWYQQKPGQAPRLLIYKVSNRFPGVPDRFSGSGSGTDFTLKISRVEAEDVGVYYCAQGTSVPFTFGQGTKLEIK
B4: dBBDu183H A102T/dBBDu072L (antibody, name in Kabat numbering, V domains shown)
VH: QVQLVESGGGLVQPGRSLRLSCAASGFTFSNAWMHWVRQAPGKGLEWVAQIKDKGNAYAAYYAPSVKGRFTISRDDSKNSIYLQMNSLKTEDTAVYYCHYVHYASASTVLPAFGVDTWGQGTTVTVSS
VL: DIVMTQSPLSLPVTPGEPASISCQASQELVHMNRNTYLHWYQQKPGQAPRLLIYKVSNRFPGVPDRFSGSGSGTDFTLKISRVEAEDVGVYYCAQGTSVPFTFGQGTKLEIK
B5: dBBDu183H D101F/dBBDu072L (antibody, name in Kabat numbering, V domains shown)
VH: QVQLVESGGGLVQPGRSLRLSCAASGFTFSNAWMHWVRQAPGKGLEWVAQIKDKGNAYAAYYAPSVKGRFTISRDDSKNSIYLQMNSLKTEDTAVYYCHYVHYASASTVLPAFGVFAWGQGTTVTVSS
VL: DIVMTQSPLSLPVTPGEPASISCQASQELVHMNRNTYLHWYQQKPGQAPRLLIYKVSNRFPGVPDRFSGSGSGTDFTLKISRVEAEDVGVYYCAQGTSVPFTFGQGTKLEIK
B6: dBBDu183H A102G/dBBDu072L (antibody, name in Kabat numbering, V domains shown)
VH: QVQLVESGGGLVQPGRSLRLSCAASGFTFSNAWMHWVRQAPGKGLEWVAQIKDKGNAYAAYYAPSVKGRFTISRDDSKNSIYLQMNSLKTEDTAVYYCHYVHYASASTVLPAFGVDGWGQGTTVTVSS
VL: DIVMTQSPLSLPVTPGEPASISCQASQELVHMNRNTYLHWYQQKPGQAPRLLIYKVSNRFPGVPDRFSGSGSGTDFTLKISRVEAEDVGVYYCAQGTSVPFTFGQGTKLEIK
B7: dBBDu183H A102H/dBBDu072L (antibody, name in Kabat numbering, V domains shown)
VH: QVQLVESGGGLVQPGRSLRLSCAASGFTFSNAWMHWVRQAPGKGLEWVAQIKDKGNAYAAYYAPSVKGRFTISRDDSKNSIYLQMNSLKTEDTAVYYCHYVHYASASTVLPAFGVDHWGQGTTVTVSS
VL: DIVMTQSPLSLPVTPGEPASISCQASQELVHMNRNTYLHWYQQKPGQAPRLLIYKVSNRFPGVPDRFSGSGSGTDFTLKISRVEAEDVGVYYCAQGTSVPFTFGQGTKLEIK
B8: dBBDu183H D101E/dBBDu072L (antibody, name in Kabat numbering, V domains shown)
VH: QVQLVESGGGLVQPGRSLRLSCAASGFTFSNAWMHWVRQAPGKGLEWVAQIKDKGNAYAAYYAPSVKGRFTISRDDSKNSIYLQMNSLKTEDTAVYYCHYVHYASASTVLPAFGVEAWGQGTTVTVSS
VL: DIVMTQSPLSLPVTPGEPASISCQASQELVHMNRNTYLHWYQQKPGQAPRLLIYKVSNRFPGVPDRFSGSGSGTDFTLKISRVEAEDVGVYYCAQGTSVPFTFGQGTKLEIK
B9: dBBDu183H A102V/dBBDu072L (antibody, name in Kabat numbering, V domains shown)
VH: QVQLVESGGGLVQPGRSLRLSCAASGFTFSNAWMHWVRQAPGKGLEWVAQIKDKGNAYAAYYAPSVKGRFTISRDDSKNSIYLQMNSLKTEDTAVYYCHYVHYASASTVLPAFGVDVWGQGTTVTVSS
VL: DIVMTQSPLSLPVTPGEPASISCQASQELVHMNRNTYLHWYQQKPGQAPRLLIYKVSNRFPGVPDRFSGSGSGTDFTLKISRVEAEDVGVYYCAQGTSVPFTFGQGTKLEIK
B10: dBBDu183H D101H/dBBDu072L (antibody, name in Kabat numbering, V domains shown)
VH: QVQLVESGGGLVQPGRSLRLSCAASGFTFSNAWMHWVRQAPGKGLEWVAQIKDKGNAYAAYYAPSVKGRFTISRDDSKNSIYLQMNSLKTEDTAVYYCHYVHYASASTVLPAFGVHAWGQGTTVTVSS
VL: DIVMTQSPLSLPVTPGEPASISCQASQELVHMNRNTYLHWYQQKPGQAPRLLIYKVSNRFPGVPDRFSGSGSGTDFTLKISRVEAEDVGVYYCAQGTSVPFTFGQGTKLEIK
B11: dBBDu183H A102S/dBBDu072L (antibody, name in Kabat numbering, V domains shown)
VH: QVQLVESGGGLVQPGRSLRLSCAASGFTFSNAWMHWVRQAPGKGLEWVAQIKDKGNAYAAYYAPSVKGRFTISRDDSKNSIYLQMNSLKTEDTAVYYCHYVHYASASTVLPAFGVDSWGQGTTVTVSS
VL: DIVMTQSPLSLPVTPGEPASISCQASQELVHMNRNTYLHWYQQKPGQAPRLLIYKVSNRFPGVPDRFSGSGSGTDFTLKISRVEAEDVGVYYCAQGTSVPFTFGQGTKLEIK
B12: dBBDu183H D101K/dBBDu072L (antibody, name in Kabat numbering, V domains shown)
VH: QVQLVESGGGLVQPGRSLRLSCAASGFTFSNAWMHWVRQAPGKGLEWVAQIKDKGNAYAAYYAPSVKGRFTISRDDSKNSIYLQMNSLKTEDTAVYYCHYVHYASASTVLPAFGVKAWGQGTTVTVSS
VL: DIVMTQSPLSLPVTPGEPASISCQASQELVHMNRNTYLHWYQQKPGQAPRLLIYKVSNRFPGVPDRFSGSGSGTDFTLKISRVEAEDVGVYYCAQGTSVPFTFGQGTKLEIK
B13: dBBDu183H A102N/dBBDu072L (antibody, name in Kabat numbering, V domains shown)
VH: QVQLVESGGGLVQPGRSLRLSCAASGFTFSNAWMHWVRQAPGKGLEWVAQIKDKGNAYAAYYAPSVKGRFTISRDDSKNSIYLQMNSLKTEDTAVYYCHYVHYASASTVLPAFGVDNWGQGTTVTVSS
VL: DIVMTQSPLSLPVTPGEPASISCQASQELVHMNRNTYLHWYQQKPGQAPRLLIYKVSNRFPGVPDRFSGSGSGTDFTLKISRVEAEDVGVYYCAQGTSVPFTFGQGTKLEIK
B14: dBBDu183H D101G/dBBDu072L (antibody, name in Kabat numbering, V domains shown)
VH: QVQLVESGGGLVQPGRSLRLSCAASGFTFSNAWMHWVRQAPGKGLEWVAQIKDKGNAYAAYYAPSVKGRFTISRDDSKNSIYLQMNSLKTEDTAVYYCHYVHYASASTVLPAFGVGAWGQGTTVTVSS
VL: DIVMTQSPLSLPVTPGEPASISCQASQELVHMNRNTYLHWYQQKPGQAPRLLIYKVSNRFPGVPDRFSGSGSGTDFTLKISRVEAEDVGVYYCAQGTSVPFTFGQGTKLEIK
B15: dBBDu183H A102Q/dBBDu072L (antibody, name in Kabat numbering, V domains shown)
VH: QVQLVESGGGLVQPGRSLRLSCAASGFTFSNAWMHWVRQAPGKGLEWVAQIKDKGNAYAAYYAPSVKGRFTISRDDSKNSIYLQMNSLKTEDTAVYYCHYVHYASASTVLPAFGVDQWGQGTTVTVSS
VL: DIVMTQSPLSLPVTPGEPASISCQASQELVHMNRNTYLHWYQQKPGQAPRLLIYKVSNRFPGVPDRFSGSGSGTDFTLKISRVEAEDVGVYYCAQGTSVPFTFGQGTKLEIK
B16: dBBDu183H A102E/dBBDu072L (antibody, name in Kabat numbering, V domains shown)
VH: QVQLVESGGGLVQPGRSLRLSCAASGFTFSNAWMHWVRQAPGKGLEWVAQIKDKGNAYAAYYAPSVKGRFTISRDDSKNSIYLQMNSLKTEDTAVYYCHYVHYASASTVLPAFGVDEWGQGTTVTVSS
VL: DIVMTQSPLSLPVTPGEPASISCQASQELVHMNRNTYLHWYQQKPGQAPRLLIYKVSNRFPGVPDRFSGSGSGTDFTLKISRVEAEDVGVYYCAQGTSVPFTFGQGTKLEIK
B17: dBBDu183H A102D/dBBDu072L (antibody, name in Kabat numbering, V domains shown)
VH: QVQLVESGGGLVQPGRSLRLSCAASGFTFSNAWMHWVRQAPGKGLEWVAQIKDKGNAYAAYYAPSVKGRFTISRDDSKNSIYLQMNSLKTEDTAVYYCHYVHYASASTVLPAFGVDDWGQGTTVTVSS
VL: DIVMTQSPLSLPVTPGEPASISCQASQELVHMNRNTYLHWYQQKPGQAPRLLIYKVSNRFPGVPDRFSGSGSGTDFTLKISRVEAEDVGVYYCAQGTSVPFTFGQGTKLEIK
B18: dBBDu183H A102Y/dBBDu072L (antibody, name in Kabat numbering, V domains shown)
VH: QVQLVESGGGLVQPGRSLRLSCAASGFTFSNAWMHWVRQAPGKGLEWVAQIKDKGNAYAAYYAPSVKGRFTISRDDSKNSIYLQMNSLKTEDTAVYYCHYVHYASASTVLPAFGVDYWGQGTTVTVSS
VL: DIVMTQSPLSLPVTPGEPASISCQASQELVHMNRNTYLHWYQQKPGQAPRLLIYKVSNRFPGVPDRFSGSGSGTDFTLKISRVEAEDVGVYYCAQGTSVPFTFGQGTKLEIK
B19: dBBDu183H A102F/dBBDu072L (antibody, name in Kabat numbering, V domains shown)
VH: QVQLVESGGGLVQPGRSLRLSCAASGFTFSNAWMHWVRQAPGKGLEWVAQIKDKGNAYAAYYAPSVKGRFTISRDDSKNSIYLQMNSLKTEDTAVYYCHYVHYASASTVLPAFGVDFWGQGTTVTVSS
VL: DIVMTQSPLSLPVTPGEPASISCQASQELVHMNRNTYLHWYQQKPGQAPRLLIYKVSNRFPGVPDRFSGSGSGTDFTLKISRVEAEDVGVYYCAQGTSVPFTFGQGTKLEIK
B20: dBBDu183H A102K/dBBDu072L (antibody, name in Kabat numbering, V domains shown)
VH: QVQLVESGGGLVQPGRSLRLSCAASGFTFSNAWMHWVRQAPGKGLEWVAQIKDKGNAYAAYYAPSVKGRFTISRDDSKNSIYLQMNSLKTEDTAVYYCHYVHYASASTVLPAFGVDKWGQGTTVTVSS
VL: DIVMTQSPLSLPVTPGEPASISCQASQELVHMNRNTYLHWYQQKPGQAPRLLIYKVSNRFPGVPDRFSGSGSGTDFTLKISRVEAEDVGVYYCAQGTSVPFTFGQGTKLEIK

Biological target: T1, Human CD3eg linker
Assay: SPR, vs unmutated H183/L072
In the case of B1, the “fold change of affinity” value is reported as 1.5 fold.
With B2 the “fold change of affinity” value was 3.3 fold.
With B3 the “fold change of affinity” value was 1 fold.
B4 was tested, and the “fold change of affinity” value was 0.5 fold.
For B5, the “fold change of affinity” value was 2.5 fold.
In the case of B6, the “fold change of affinity” value is reported as 1 fold.
For B7, the “fold change of affinity” value was 3.6 fold.
For B8, the “fold change of affinity” value was 0 fold.
For B9, the “fold change of affinity” value was 1 fold.
B10 was tested, and the “fold change of affinity” value was 0.4 fold.
B11 was tested, and the “fold change of affinity” value was 1.9 fold.
B12 was tested, and the “fold change of affinity” value was 0 fold.
In the case of B13, the “fold change of affinity” value is reported as 1.5 fold.
With B14 the “fold change of affinity” value was 0.4 fold.
For B15, the “fold change of affinity” value was 1.3 fold.
B16 was tested, and the “fold change of affinity” value was 1.1 fold.
B17 was tested, and the “fold change of affinity” value was 1.3 fold.
In the case of B18, the “fold change of affinity” value is reported as 2.5 fold.
For B19, the “fold change of affinity” value was 2 fold.
With B20 the “fold change of affinity” value was 1.5 fold.

From patent US20210388087A1 (Chugai, published 2021)
